{"source": "patent US20210040209A1", "about": "(Janssen / Centocor, published 2021)", "binders": {"B1": {"name": "PS3B27 PSMAxCD3 bispecific antibody (PSMB127 x CD3B219) (bispecific antibody, human IgG4 S228P, kappa, lambda, F234A L235A)", "heavy 1": "not shown", "light 1": "not shown", "heavy 2": "EVQLVESGGGLVQPGGSLRLSCAASGFTFNTYAMNWVRQAPGKGLEWVARIRSKYNNYATYYAASVKGRFTISRDDSKNSLYLQMNSLKTEDTAVYYCARHGNFGNSYVSWFAYWGQGTLVTVSSASTKGPSVFPLAPCSRSTSESTAALGCLVKDYFPEPVTVSWNSGALTSGVHTFPAVLQSSGLYSLSSVVTVPSSSLGTKTYTCNVDHKPSNTKVDKRVESKYGPPCPPCPAPEAAGGPSVFLFPPKPKDTLMISRTPEVTCVVVDVSQEDPEVQFNWYVDGVEVHNAKTKPREEQFNSTYRVVSVLTVLHQDWLNGKEYKCKVSNKGLPSSIEKTISKAKGQPREPQVYTLPPSQEEMTKNQVSLTCLVKGFYPSDIAVEWESNGQPENNYKTTPPVLDSDGSFLLYSKLTVDKSRWQEGNVFSCSVMHEALHNHYTQKSLSLSLGK", "light 2": "QTVVTQEPSLTVSPGGTVTLTCRSSTGAVTTSNYANWVQQKPGQAPRGLIGGTNKRAPGTPARFSGSLLGGKAALTLSGVQPEDEAEYYCALWYSNLWVFGGGTKLTVLGQPKAAPSVTLFPPSSEELQANKATLVCLISDFYPGAVTVAWKADSSPVKAGVETTTPSKQSNNKYAASSYLSLTPEQWKSHRSYSCQVTHEGSTVEKTVAPTECS", "notes": "also called the study drug"}}, "key": {"[1]": {"molecular_target": "human PSMA on cells (LNCaP, C4-2B, LNCaP AR, 22RV1 prostate tumor cell lines; human prostate tissue) (human, UniProt Q04609 1-750)", "sequence (Q04609 whole entry)": "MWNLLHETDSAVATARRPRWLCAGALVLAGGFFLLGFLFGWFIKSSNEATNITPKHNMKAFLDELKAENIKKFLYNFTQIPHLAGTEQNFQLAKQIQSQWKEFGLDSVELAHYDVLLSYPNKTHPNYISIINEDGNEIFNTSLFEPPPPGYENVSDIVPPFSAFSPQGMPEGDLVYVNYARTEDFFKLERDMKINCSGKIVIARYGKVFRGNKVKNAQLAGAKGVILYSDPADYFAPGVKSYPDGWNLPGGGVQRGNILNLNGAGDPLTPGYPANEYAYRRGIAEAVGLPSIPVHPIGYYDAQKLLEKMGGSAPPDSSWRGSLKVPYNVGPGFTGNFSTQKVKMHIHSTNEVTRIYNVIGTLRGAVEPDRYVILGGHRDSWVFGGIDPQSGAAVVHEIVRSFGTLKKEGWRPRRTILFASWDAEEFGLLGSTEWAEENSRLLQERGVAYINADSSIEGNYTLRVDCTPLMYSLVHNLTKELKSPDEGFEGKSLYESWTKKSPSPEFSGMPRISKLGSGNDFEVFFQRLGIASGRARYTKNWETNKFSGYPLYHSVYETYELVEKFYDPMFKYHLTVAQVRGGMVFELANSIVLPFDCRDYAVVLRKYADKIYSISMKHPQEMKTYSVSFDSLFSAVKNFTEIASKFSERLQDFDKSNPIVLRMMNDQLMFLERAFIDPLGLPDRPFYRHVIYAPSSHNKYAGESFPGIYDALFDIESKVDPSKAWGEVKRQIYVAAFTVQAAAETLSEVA", "assay": "cell-based or functional assay"}, "[2]": {"molecular_target": "T1, human CD3 epsilon on cells (primary human T cells; mononuclear cells of human tissue) (human, UniProt P07766 23-207)", "T1 construct": "Part of the TCR/CD3 complex on T cells; also called CD3ε; cell-surface CD3ε", "T1 sequence (P07766 23-207 limits assumed)": "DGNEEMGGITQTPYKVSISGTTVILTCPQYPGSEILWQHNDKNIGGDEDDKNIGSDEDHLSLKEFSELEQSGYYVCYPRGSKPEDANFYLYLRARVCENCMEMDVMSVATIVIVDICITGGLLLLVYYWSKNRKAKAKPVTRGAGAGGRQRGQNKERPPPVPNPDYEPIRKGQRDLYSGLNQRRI", "assay": "tissue cross-reactivity staining of cryosections of normal human tissues", "experimental": "A GLP cross-reactivity study was conducted in cryosections of normal human tissues with the study drug and its anti-PSMA parental (bivalent) antibody (positive control). No unanticipated tissue cross-reactivity of the study drug was observed. Membrane staining of epithelial cells and staining of extracellular material in the prostate with both the study drug and the anti-PSMA parental antibody was anticipated due to PSMA expression in these tissues. Staining of mononuclear cells with the study drug only was expected based on the expression of CD3ε on T cells."}}}
{"binder": "B1", "values": [{"measurement": "CD25 expression on T cells co-cultured with C4-2B cells, median EC50", "setting": "[1]", "value": 0.06, "unit": "nM"}, {"measurement": "T cell dependent cytotoxicity of C4-2B cells, median EC50", "setting": "[1]", "value": 0.08, "unit": "nM"}, {"measurement": "binding result", "setting": "[2]", "value": "binds"}]}
